# Data published in the supplement of paper PMC12764529.
# ± gives the half width of the 95% confidence interval.
# Test: folding stability dG unfold from chymotrypsin proteolysis; higher = more stable
# Method in brief: (§1)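 K50 was inferred by Bayesian fitting of sequencing counts obtained after protease digestion of designed mini-proteins. Unfolding free energy was derived by comparison with a sequence-predicted unfolded-state K50 and a shared folded-state K50, for each protease or both combined. The mini-proteins were under 80 residues, had no cysteine, were carried in a PA-tagged cDNA display construct, and were kept only if AlphaFold2 dimer inter-PAE exceeded 15.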
row,Sequence,folding stability dG unfold
1,SAGGKTVIIEGMSLEELLELIKNAKPGDTITITLKVKVEEYKYENGKLVEKKEFEKTLTLTLKIEEKESAGG [r13_632_TrROS_Hall],4.29 ± 0.19 kcal/mol
2,SAGGSAGGSAGEPVEIEIKIKVEVNGKTYEITAKLEVYKNEDGSYEVKLYAPPEAITEVESAGGSAGGSAGG [r11_816_TrROS_Hall],2.99 ± 0.09 kcal/mol
3,SAGGSALKDFPLEEVEKVILVDLPDGKPALLVLLKGPPVVVLYPLESGKPIFIDAPLEEVLEFLLSSAGGSA [r15_810_TrMRF],2.892 ± 0.014 kcal/mol
4,SAKVKISIEFDKKTNKVTIKVKYKGDKEKEKEITLSLEELQKKLGKPLSLEEIIKLLKEKGIDEVEIYPSAG [r14_809_TrROS_Hall],4.26 ± 0.093 kcal/mol
5,SAGGKVKILKTEVFEEGDYLKIVDFVEVDSLEEIEELVKNGLENVEAEVRLLPDGRLLVVLVAEIPKESAGG [r13_506_TrMRF],1.4 ± 0.026 kcal/mol
6,SAGGSMEVKVVSYDEEKGVLVIEVDEDETVEELVERLRSIPGLKVEVEVVEKDGKLYVVIRVEKKESAGGSA [r2_44_TrROS_Hall],4.27 ± 0.09 kcal/mol
7,SRKFLNDPNIDKVEPTIVIPMSPEERKELAQNLANGIYNYLREHGWPLPPNIEIKIIPFPSPEQMKKMMKSA [r9_204_TrROS],1.09 ± 0.17 kcal/mol
8,MTLEELKAAEGKRLEDVVTVEIVRVERDPETGEEKVVEKRTITFPPGMTLEELKALLESLPAEVRITRVRRS [r1_132_TrROS_Hall],2.27 ± 0.035 kcal/mol
9,SAGGGAMHTVTITDEAGNVTTFTLPTDLDTLKEKIKELFPEKKYEIKKVTRVPGNPGLTTITVKVPKDSAGG [r13_832_JUSTAS],1.89 ± 0.064 kcal/mol
10,SAGGGPDLPGEVEVEVEITRVEFDPETGELRVEAEATFPDGLVAKVKITFPEPGDLDKFEVEVEVEPASAGG [r13_894_TrMRF],1.68 ± 0.071 kcal/mol
11,SVTRDPDGKITVDVDVRRTPDGFYYVEVKLQLKDGKPIFPVPAPVKNPEDGVKRMKEFAETFAKEFLKKWSA [r9_739_TrROS],2.42 ± 0.087 kcal/mol
12,SAGGSAMLLIKITIETKDGEKYEIVVEAESEEEALAALKEKARELFPELSEEDVKIVDIEVYELEESAGGSA [r15_220_TrROS_Hall],4.25 ± 0.088 kcal/mol
13,SAGGSAGGSSELKVVELTTEPGKYLVVTLPDGTVVVLPPGAPLPLGDGEPATVEVVPEEELRSSAGGSAGGS [r12_39_JUSTAS],0.85 ± 0.022 kcal/mol
14,SAGGPDLVPVARAVYRIDVPPDRTAEEVRREIEERLRPLGVRRVVVPVFYDPERGYLLVVAEVYRSPEESAG [r5_924_TrMRF],2.17 ± 0.1 kcal/mol
15,SAGGSAPEVKIVDVEEVDGEVKIKVEAPPGARLLIFNRATGKWEEVEVKPGDTITLPPGALVLVEPSAGGSA [r15_418_TrROS_Hall],3.22 ± 0.035 kcal/mol
16,SAGGSAGGNITPEAKKLVEELADQISEEFPNNGMDIEVEDITWQPDGNVVIRIRFNGWTIWIPVSAGGSAGG [r6_495_TrROS],2.25 ± 0.05 kcal/mol

# Test: folding stability dG unfold (combined trypsin and chymotrypsin); higher = more stable
# Method in brief: as §1
row,Sequence,folding stability dG unfold
1,PWVMIPIRVDDPNMTIREIANEVRKALPPGNKNLKISIMWGDGRRYEIDPGETLKDHFPPGDEFHIMVRLPS [r1_56_TrROS],1.55 ± 0.048 kcal/mol
2,SAGGSAGGSMKTTLLAEKELPDGTRVELTRVESPGSLTYEVVTVSPEGTEVRTLPPDELPYLLSAGGSAGGS [r12_315_JUSTAS],0.912 ± 0.15 kcal/mol
3,PKPLIEIERLPEGVLRARAINPVTGAPITITVPVEPGVDGYRLLAEVEAENVPPELAVKTAETVLALLEKKS [r1_403_TrMRF],-0.0268 ± 0.26 kcal/mol
4,SAGGSAGGSAGRLLLEGLGADEVLRLEPEPDRVPIVVRHRDGGRDVVIEMDFEEAVRAILSAGGSAGGSAGG [r11_630_TrMRF],-0.771 ± 0.42 kcal/mol
5,SAGGSAGGSPNYRTVTVTLPNGEVYVIDVSQLIESDPNYVPGDPISDEELVALAKKRAEELELSSAGGSAGG [r6_65_JUSTAS],3.04 ± 0.041 kcal/mol
6,SAGGSAGGSAGGLPPGDKLKPVASWPIWAMFPVTYKGPDGELPFNIMIPIRIEIWKPDDSAGGSAGGSAGGS [r10_758_TrROS],2.49 ± 0.1 kcal/mol
7,SAGGKIIEAIKELLKEGKKLSKEEILKKLKEALRKKAEEEGKPIEEIEITSIHFDKETNEVHIEIKPSAGGS [r16_365_TrROS_Hall],2.57 ± 0.089 kcal/mol
8,SAGGSAKSLTLTVEITLPDGSTVRIEAEIEEKDGYLVIKVTIYNEDGEKVAEFTLVLKLPPPPPEPSAGGSA [r15_263_TrROS_Hall],3.76 ± 0.66 kcal/mol
9,SAGGSAGGSAGKKYLIKIEVEKNGKKYTITMSLEELKKLISSPNVKIVKIEIVEVSEEDLSAGGSAGGSAGG [r17_204_TrROS_Hall],4.98 ± 0.11 kcal/mol
10,SAGGSAGGSAGMELTLDEIRALLPAEEIEEVEVVEVDGKLVIRVKRKDGKEVRELVIEKDSAGGSAGGSAGG [r17_374_TrROS_Hall],1.73 ± 0.13 kcal/mol
11,SAGGSAGGSAEKKKVTIRIVVKPEDVEEILKAIEELLPPGAKATIKVFDKNGELIAEFEFEVSAGGSAGGSA [r18_188_TrROS_Hall],2.86 ± 0.12 kcal/mol
12,SAGEIEEILIENPETNEVYRITKVETTVELDEDGNLHTTTKVEIEKVEPPPPPEPEVEVEVKPGEKVELSAG [r5_212_TrROS_Hall],< -1 kcal/mol
13,SAGMVITETEELPDRTITTVKYSDGKVVIETLEYDPNSNVVTKTVTTIDLSNPSVSKTTTTVEPDPAPSAGG [r19_102_JUSTAS],1.62 ± 0.092 kcal/mol
14,SAGVEIKTDPSKPVITITINYTSIEEAKEYIEKLVKEIGAKEVKIKEDPNSNKITATIDLKDIKKIEKLSAG [r5_598_JUSTAS],1.09 ± 0.41 kcal/mol
15,SAGGSAGGSAGLDPDDPNYKIIPMTMEIKVEEYRMDPDGKMERQEQEHPIPILIIVPPGDSAGGSAGGSAGG [r17_523_TrROS],0.365 ± 0.22 kcal/mol
16,SAGGKTVIIEGMSLEELLELIKNAKPGDTITITLKVKVEEYKYENGKLVEKKEFEKTLTLTLKIEEKESAGG [r13_632_TrROS_Hall],4.1 ± 0.33 kcal/mol

row,Sequence,folding stability dG unfold
1,SAGGSAGGSAGEPVEIEIKIKVEVNGKTYEITAKLEVYKNEDGSYEVKLYAPPEAITEVESAGGSAGGSAGG [r11_816_TrROS_Hall],2.7 ± 0.24 kcal/mol
2,SAGGSALKDFPLEEVEKVILVDLPDGKPALLVLLKGPPVVVLYPLESGKPIFIDAPLEEVLEFLLSSAGGSA [r15_810_TrMRF],2.83 ± 0.044 kcal/mol
3,SAKVKISIEFDKKTNKVTIKVKYKGDKEKEKEITLSLEELQKKLGKPLSLEEIIKLLKEKGIDEVEIYPSAG [r14_809_TrROS_Hall],4.06 ± 0.15 kcal/mol
4,SAGGKVKILKTEVFEEGDYLKIVDFVEVDSLEEIEELVKNGLENVEAEVRLLPDGRLLVVLVAEIPKESAGG [r13_506_TrMRF],1.36 ± 0.04 kcal/mol
5,SAGGSMEVKVVSYDEEKGVLVIEVDEDETVEELVERLRSIPGLKVEVEVVEKDGKLYVVIRVEKKESAGGSA [r2_44_TrROS_Hall],3.98 ± 0.18 kcal/mol
6,SRKFLNDPNIDKVEPTIVIPMSPEERKELAQNLANGIYNYLREHGWPLPPNIEIKIIPFPSPEQMKKMMKSA [r9_204_TrROS],0.901 ± 0.13 kcal/mol
7,MTLEELKAAEGKRLEDVVTVEIVRVERDPETGEEKVVEKRTITFPPGMTLEELKALLESLPAEVRITRVRRS [r1_132_TrROS_Hall],2.11 ± 0.11 kcal/mol
8,SAGGGAMHTVTITDEAGNVTTFTLPTDLDTLKEKIKELFPEKKYEIKKVTRVPGNPGLTTITVKVPKDSAGG [r13_832_JUSTAS],1.68 ± 0.11 kcal/mol
9,SAGGGPDLPGEVEVEVEITRVEFDPETGELRVEAEATFPDGLVAKVKITFPEPGDLDKFEVEVEVEPASAGG [r13_894_TrMRF],1.59 ± 0.035 kcal/mol
10,SVTRDPDGKITVDVDVRRTPDGFYYVEVKLQLKDGKPIFPVPAPVKNPEDGVKRMKEFAETFAKEFLKKWSA [r9_739_TrROS],2.04 ± 0.15 kcal/mol
11,SAGGSAMLLIKITIETKDGEKYEIVVEAESEEEALAALKEKARELFPELSEEDVKIVDIEVYELEESAGGSA [r15_220_TrROS_Hall],4.29 ± 0.13 kcal/mol
12,SAGGSAGGSSELKVVELTTEPGKYLVVTLPDGTVVVLPPGAPLPLGDGEPATVEVVPEEELRSSAGGSAGGS [r12_39_JUSTAS],0.705 ± 0.046 kcal/mol
13,SAGGPDLVPVARAVYRIDVPPDRTAEEVRREIEERLRPLGVRRVVVPVFYDPERGYLLVVAEVYRSPEESAG [r5_924_TrMRF],2.06 ± 0.081 kcal/mol
14,SAGGSAPEVKIVDVEEVDGEVKIKVEAPPGARLLIFNRATGKWEEVEVKPGDTITLPPGALVLVEPSAGGSA [r15_418_TrROS_Hall],2.88 ± 0.1 kcal/mol
15,SAGGSAGGNITPEAKKLVEELADQISEEFPNNGMDIEVEDITWQPDGNVVIRIRFNGWTIWIPVSAGGSAGG [r6_495_TrROS],2.03 ± 0.16 kcal/mol
